Results taken from US11780903B2, “Peptide suppressing binding of CTLA4 to B7 proteins, and use thereof” (TOAGOSEI CO., LTD., priority 2020, dated 2023).
No end group written: not given here.

Tests used:
binding of CTLA4 to B7-1 = target: T1, binding of CTLA4 to B7-1 (Homo sapiens, UniProt P16410); assay: Test for evaluating binding inhibitory properties between CTLA4 and B7-1 (BPS #72009 inhibitor screening assay kit, chemiluminescence); details: peptide concentration 5 μM and/or 10 μM as in Table 2; plate-coated CTLA4, biotin-labeled B7-1; n=2 wells; versus no peptide added
T1 construct: purchased BPS Bioscience BPS #72009
T1 sequence (P16410 36-161 limits assumed): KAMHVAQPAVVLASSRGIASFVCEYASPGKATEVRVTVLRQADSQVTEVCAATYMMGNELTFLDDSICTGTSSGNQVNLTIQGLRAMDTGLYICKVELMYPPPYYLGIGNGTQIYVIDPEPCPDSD
Procedure: The binding inhibitory properties between CTLA4 and B7-1 were evaluated for the 6 kinds of sample peptides synthesized in the above-described Test Example 1.
In this test, Test Examples 2-1 to 2-9 were set according to the kinds of sample peptide used and the peptide concentration as shown in Table 2 below. In addition, a peptide-free group was set as Test Example 2-10. The tests of the above-described 10 categories in total were carried out as follows. The numbers “1 to 10” shown in the “No.” column of Table 2 represent “Test Examples 2-1 to 2-10” in Test Example 2. In addition, the number (n) of test wells in each of the above-described examples was set to 2.
In Test Example 2-1, the following kit currently available on the market was used. CTLA4 B7-1 (Biotinylated) inhibitor screening assay kit (manufactured by BPS Bioscience, BPS #72009)
The operation for this test example was based on “ASSAY PROTOCOL” described in the data sheet of the above-described kit. A brief procedure is shown below.
First, each well of a 96-well plate was coated with CTLA4. Specifically, a CTLA4 solution (2 μg/mL) was dispensed into each well of the 96-well plate, and the plate was incubated overnight at 4° C.
Subsequently, the CTLA4 solution was removed, and each well was washed.
Subsequently, blocking was performed. Specifically, a blocking buffer contained in the kit was dispensed into each well, and the plate was incubated for 1 hour at room temperature.
Subsequently, a solution of the Sample 1 was dispensed into each well, and the plate was incubated for 1 hour at room temperature.
Subsequently, a biotin-labeled B7-1 solution (1.25 ng/mL) was dispensed into each well of the 96-well plate, and the plate was incubated for 2 hours at room temperature.
After the above-described incubation, the peptide solution was removed, and each well was washed. […]
Subsequently, the blocking buffer was removed, a chemiluminescent reagent contained in the above-described kit was dispensed into each well, and the chemiluminescence intensity in each well was measured with a luminometer. […]

binding of CTLA4 to B7-2 = target: T2, binding of CTLA4 to B7-2 (Homo sapiens, UniProt P16410); assay: Test for evaluating binding inhibitory properties between CTLA4 and B7-2 (BPS #79658 inhibitor screening assay kit, chemiluminescence); details: peptide concentration 5 μM and/or 10 μM as in Table 2; plate-coated CTLA4, biotin-labeled B7-2; n=2 wells; versus no peptide added
T2 construct: purchased BPS Bioscience BPS #79658
T2 sequence (P16410 36-161 limits assumed): T1 sequence (P16410 36-161 limits assumed)
Procedure: The binding inhibitory properties between CTLA4 and B7-2 were evaluated for the 6 kinds of sample peptides synthesized in the above-described Test Example 1.
In this test, Test Examples 3-1 to 3-9 were set according to the kind of sample peptide used and the peptide concentration as shown in Table 2 mentioned above. In addition, a peptide-free group was set as Test Example 3-10. The tests of the above-described 10 categories in total were carried out as follows. The numbers “1 to 10” shown in the “No.” column of Table 2 represent “Test Examples 3-1 to 3-10” in Test Example 3. In addition, the number (n) of test wells in each of the above-described examples was set to 2.
In Test Example 3-1, the following kit currently available on the market was used. CTLA4 B7-2 (Biotinylated) inhibitor screening assay kit (BPS #79658)
The operation for this test example was based on “ASSAY PROTOCOL” described in the data sheet of the above-described kit.
Test Example 3-1 was performed using the same materials and processes as those of Test Example 2-1 except that the above-described kit was used.

Sequence | suppression of binding of CTLA4 to B7-1 (chemiluminescence intensity, FIG. 1) (binding of CTLA4 to B7-1) | suppression of binding of CTLA4 to B7-2 (chemiluminescence intensity, FIG. 2) (binding of CTLA4 to B7-2)
KKRTLRKNDR KKR (KKRTLRKNDRKKR-NH2) [Sample 6] | not suppressed | not suppressed
MQIPQAPWPVVWAVLQLGWR (MQIPQAPWPVVWAVLQLGWR-NH2) [Sample 4] | no action of suppressing the binding of CTLA4 to B7-1 was observed | –
MQIPQAPWPVVWAVLQLGWRMQIPQAPWRPVVWAVLQLGW [Sample 5] | no action of suppressing the binding of CTLA4 to B7-1 was observed | –
